Consider 1 protein from publication doi:10.1101/2023.07.22.550172 (bioRxiv, 2023).

The series concerns the molecule itself. The series is described as follows: cryo-EM structure.

B1: major pilin PilA of Myxococcus xanthus (MXAN_5783), mature, as the subunit of the type IV pilus (natural protein, UniProt Q59589 13-220, looked up)
chain: FTLIELMIVVAIIGILAAIAIPNFIKFQARSKQSEAKTNLKALYTAQKSFFSEKDRYSDFANEIGFAPERGNRYGYRVSAAAGDCEVRNAADLPVPAAGVPCISNDSFRFGANSAIDDPTPVVARFVPQGAAGWNTTLGVQPTIADCPNCNFFAGARGNADNEATFDDWVIAGFEGSGQVGPCSEAGNVASGTPYNTRNDVACDGAAQ
As for B1, the binding result is recorded as “binds”.
